The results in this text go back to PMC6987093, “Polymerase independent repression of FoxO1 transcription by sequence-specific PARP1 binding to FoxO1 promoter”.

For series [1], the target named is T1, PARP1 (UniProt P09874 1-1014). As to the kind of experiment: pull-down (FREP); EcoRI and BamHI release; EMSA: 0, 2, 5 or 10 ug PARP1 pre-incubated 30 min with 50 ng DNA probe (Thermo EMSA kit), nondenaturing PAGE; buffer, salt, pH and temperature not given in the. To be noted: label: 5' biotin. (A gel shift assay detects complexes by their altered migration in electrophoresis.)
T1 sequence (P09874 whole entry): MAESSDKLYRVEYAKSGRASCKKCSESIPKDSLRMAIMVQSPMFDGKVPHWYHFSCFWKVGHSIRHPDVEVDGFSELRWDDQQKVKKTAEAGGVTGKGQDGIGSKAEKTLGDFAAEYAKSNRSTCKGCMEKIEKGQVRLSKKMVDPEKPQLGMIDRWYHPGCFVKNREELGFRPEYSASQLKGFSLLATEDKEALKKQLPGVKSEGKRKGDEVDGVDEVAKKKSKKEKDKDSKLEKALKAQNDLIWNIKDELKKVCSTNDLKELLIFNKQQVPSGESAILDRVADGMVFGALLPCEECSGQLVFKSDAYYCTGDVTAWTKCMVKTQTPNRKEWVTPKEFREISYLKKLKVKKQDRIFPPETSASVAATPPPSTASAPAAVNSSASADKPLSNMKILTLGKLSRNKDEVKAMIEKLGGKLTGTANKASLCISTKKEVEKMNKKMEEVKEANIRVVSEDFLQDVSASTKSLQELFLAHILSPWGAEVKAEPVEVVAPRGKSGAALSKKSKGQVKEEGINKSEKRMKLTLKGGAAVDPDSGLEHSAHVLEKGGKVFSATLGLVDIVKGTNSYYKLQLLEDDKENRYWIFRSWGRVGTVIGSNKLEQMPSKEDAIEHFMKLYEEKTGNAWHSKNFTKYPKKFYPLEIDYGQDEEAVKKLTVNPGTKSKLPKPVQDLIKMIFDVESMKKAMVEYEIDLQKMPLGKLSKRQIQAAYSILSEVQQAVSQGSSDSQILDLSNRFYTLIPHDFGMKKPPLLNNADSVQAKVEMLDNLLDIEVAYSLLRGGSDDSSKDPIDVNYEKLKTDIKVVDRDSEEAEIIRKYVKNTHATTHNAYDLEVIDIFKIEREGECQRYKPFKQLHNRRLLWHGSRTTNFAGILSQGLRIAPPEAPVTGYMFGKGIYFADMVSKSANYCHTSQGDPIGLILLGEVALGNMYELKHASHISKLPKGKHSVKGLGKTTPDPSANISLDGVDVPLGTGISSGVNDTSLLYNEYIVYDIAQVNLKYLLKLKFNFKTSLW

Series [2] concerns the target T1, PARP1. The experiment in a line: competition; 40-fold excess over FoxO1-R-B-biotin in FREP; EMSA: 0, 2, 5 or 10 ug PARP1 pre-incubated 30 min with 50 ng DNA probe (Thermo EMSA kit), nondenaturing PAGE; buffer, salt, pH and temperature not given in the.

B1: FoxO1-L-B-biotin (dsDNA)
DNA 1: AATGATACGGCGACCACCGAGGATCCTCACTGTATTCTTGAATTCTCGTATGCCGTCTTCGCTTG
DNA 2: CAAGCGAAGACGGCATACGAGAATTCAAGAATACAGTGAGGATCCTCGGTGGTCGCCGTATCATT
For B1, in series [1], the binding result was “binds”.

B2: FoxO1-R-B-biotin (dsDNA)
DNA 1: AATGATACGGCGACCACCGAGGATCCTCTTGTGGTCTCTTCACGTTTACGAATTCTCGTATGCCGTCTTCTGCTTG
DNA 2: CAAGCAGAAGACGGCATACGAGAATTCGTAAACGTGAAGAGACCACAAGAGGATCCTCGGTGGTCGCCGTATCATT
As to B2, the binding result in series [1] is on record as “binds”.

B3: FoxO1-R-B (free competitor) (dsDNA)
DNA 1: AATGATACGGCGACCACCGAGGATCCTCTTGTGGTCTCTTCACGTTTACGAATTCTCGTATGCCGTCTTCTGCTTG
DNA 2: CAAGCAGAAGACGGCATACGAGAATTCGTAAACGTGAAGAGACCACAAGAGGATCCTCGGTGGTCGCCGTATCATT
With B3, the binding result in series [2] is on record as “binds”.
